This note sets out measurements from paper PMC7113306, “Molecular basis of ALK1-mediated signalling by BMP9/BMP10 and their prodomain-bound forms” (Nature Communications, 2020).

For orientation: stoichiometry N means a count of units in the complex or per binding partner.

One data set has as its target T1, soluble endoglin (sENG) (human, UniProt P17813 26-586).
T1 construct: signal peptide in the construct; endoglin (ENG), human, residue 1-586 of the cDNA; source: HEK EBNA, transfected (pCEP4), purified from conditioned medium (HiTrap Excel, HiTrap Q, Superdex 200)
T1 sequence (looked up): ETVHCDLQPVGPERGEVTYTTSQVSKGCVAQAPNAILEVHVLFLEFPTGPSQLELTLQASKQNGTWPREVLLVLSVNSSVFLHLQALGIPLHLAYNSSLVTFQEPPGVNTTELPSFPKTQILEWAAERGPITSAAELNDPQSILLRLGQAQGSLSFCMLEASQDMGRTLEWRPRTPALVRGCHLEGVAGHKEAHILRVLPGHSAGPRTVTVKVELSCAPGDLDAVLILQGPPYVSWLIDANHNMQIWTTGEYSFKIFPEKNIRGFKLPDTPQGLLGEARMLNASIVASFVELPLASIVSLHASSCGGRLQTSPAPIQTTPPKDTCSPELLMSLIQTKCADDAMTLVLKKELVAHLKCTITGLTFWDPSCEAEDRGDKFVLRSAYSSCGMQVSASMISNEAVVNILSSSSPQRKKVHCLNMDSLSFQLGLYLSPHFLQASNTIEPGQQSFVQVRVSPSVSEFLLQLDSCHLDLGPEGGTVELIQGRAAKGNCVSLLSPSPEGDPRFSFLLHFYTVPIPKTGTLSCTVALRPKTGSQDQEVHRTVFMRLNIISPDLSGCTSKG
The data set can be described thus: SEC; analytical gel filtration, Superdex 200 10/300, 20 mM Tris.HCl, 150 mM NaCl, pH 7.4; 100 μg protein with 2-fold molar excess of ALK1 ECD; peaks checked by SDS-PAGE and anti-prodomain blot. The settings on record: both partners purified.

Data set [1] deals with the molecule itself. The experiment in a line: crystal structure; pro-BMP9 mixed with ALK1 ECD at 1:1.5, 3.3 Å, space group P6_(1).
Data set [2] deals with the molecule itself. The data set can be described thus: crystal structure; BMP10 GF-domain with ALK1 ECD, 2.3 Å and 2.8 Å, space group P6_(5)22.
Data set [3] deals with T2, ALK1 extracellular domain (ALK1 ECD) (human, UniProt P37023 22-118).
T2 construct: activin receptor-like kinase 1 (ALK1), human, cDNA NM_000020, amino acids 22-118; Released from DsbA-(His)6 by TEV protease; also called ALK1 monomer; source: E. coli Rosetta DE3, periplasm, purified (Ni-NTA, TEV cleavage, Superdex 75); not shown: DsbA, N-terminal, cleaved; His6, N-terminal, cleaved
T2 sequence (P37023 22-118): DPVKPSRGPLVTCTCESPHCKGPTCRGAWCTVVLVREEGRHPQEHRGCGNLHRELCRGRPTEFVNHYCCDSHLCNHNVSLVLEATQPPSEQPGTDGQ
The description is as above. The note with it: both partners purified.

B1: BMP9 GF-domain from pro-BMP9 (ligand, human, UniProt Q9UK05 320-429, looked up)
chain: SAGAGSHCQKTSLRVNFEDIGWDSWIIAPKEYEAYECKGGCFFPLADDVTPTKHAIVQTLVHLKFPTKVGKACCVPTKLSPISVLYKDDMGVPTLKYHYEGMSVAECGCR
notes: BMP9 GF-domain, human, the processed C-terminal product of full-length proBMP9; also called BMP9 dimer; source: HEK EBNA, as part of purified pro-BMP9
For the molecule B1, in the data set with soluble endoglin (sENG), the binding result is reported as “binds”. Moreover, the “stoichiometry N” value in data set [1] was found to be 2.

B2: BMP10 GF-domain from pro-BMP10 (ligand, human, UniProt O95393 317-424, looked up)
chain: NAKGNYCKRTPLYIDFKEIGWDSWIIAPPGYEAYECRGVCNYPLAEHLTPTKHAIIQALVHLKNSQKASKACCVPTKLEPISILYLDKGVVTYKFKYEGMAVSECGCR
notes: BMP10 GF-domain, human, the processed C-terminal product of full length proBMP10; also called BMP10 GF-domain disulphide-linked dimer; source: HEK EBNA, as part of purified pro-BMP10
For the molecule B2, the “stoichiometry N” value in data set [2] is 2; in data set [3], 1 ALK1 ECD per BMP10 monomer (2:2).
